These results are taken from publication PMC3799859.

B1: ΔIRE1-V5/His (ER lumenal domain of human IRE1) [human] / FLAG-tagged full-length wild-type IRE1 [human] (parent)
chain 1: IFGSTSTVTLPETLLFVSTLDGSLHAVSKRTGSIKWTLKEDPVLQVPTHVEEPAFLPDPNDGSLYTLGSKNNEGLTKLPFTIPELVQASPCRSSDGILYMGKKQDIWYVIDLLTGEKQQTLSSAFADSLCPSTSLLYLGRTEYTITMYDTKTRELRWNATYFDYAASLPEDDVDYKMSHFVSNGDGLVVTVDSESGDVLWIQNYASPVVAFYVWQREGLRKVMHINVAVETLRYLTFMSGEVGRITKWKYPFPKETEAKSKLTPTLYVGKYSTSLYASPSMVHEGVAVVPRGSTLPLLEGPQTDGVTIGDKGECVITPSTDVKFDPGLKSKNKLNYLRNYWLLIGHHETPLSASTKMLERFPNNLPKHRENVIPADSEKKSFEEVINLVDQTSENAPTTVSRDVEEKPAHAPARPEAPVDSMLKDMATIILSTFLLIGWVAFIITYPLSMHQQQQLQHQQFQKELEKIQLLQQQQQQLPFHPPGDTAQDGELLDTSGPYSESSGTSSPSTSPRASNHSLCSGSSASKAGSSPSLEQDDGDEETSVVIVGKISFCPKDVLGHGAEGTIVYRGMFDNRDVAVKRILPECFSFADREVQLLRESDEHPNVIRYFCTEKDRQFQYIAIELCAATLQEYVEQKDFAHLGLEPITLLQQTTSGLAHLHSLNIVHRDLKPHNILISMPNAHGKIKAMISDFGLCKKLAVGRHSFSRRSGVPGTEGWIAPEMLSEDCKENPTYTVDIFSAGCVFYYVISEGSHPFGKSLQRQANILLGACSLDCLHPEKHEDVIARELIEKMIAMDPQKRPSAKHVLKHPFFWSLEKQLQFFQDVSDRIEKESLDGPIVKQLERGGRAVVKMDWRENITVPLQTDLRKFRTYKGGSVRDLLRAMRNKKHHYRELPAEVRETLGSLPDDFVCYFTSRFPHLLAHTYRAMELCSHERLFQPYYFHEPPEPQPPVTPDAL
chain 2: IFGSTSTVTLPETLLFVSTLDGSLHAVSKRTGSIKWTLKEDPVLQVPTHVEEPAFLPDPNDGSLYTLGSKNNEGLTKLPFTIPELVQASPCRSSDGILYMGKKQDIWYVIDLLTGEKQQTLSSAFADSLCPSTSLLYLGRTEYTITMYDTKTRELRWNATYFDYAASLPEDDVDYKMSHFVSNGDGLVVTVDSESGDVLWIQNYASPVVAFYVWQREGLRKVMHINVAVETLRYLTFMSGEVGRITKWKYPFPKETEAKSKLTPTLYVGKYSTSLYASPSMVHEGVAVVPRGSTLPLLEGPQTDGVTIGDKGECVITPSTDVKFDPGLKSKNKLNYLRNYWLLIGHHETPLSASTKMLERFPNNLPKHRENVIPADSEKKSFEEVINLVDQTSENAPTTVSRDVEEKPAHAPARPEAPVDSMLKD

Variants of B1 are the subject of the assay. In words: co-immunoprecipitation (IP: V5, Western blot for FLAG, quantified). The following applies: with FLAG-tagged full-length wild-type IRE1 [human]; with Sig-1R overexpression; non-stressed cells; n = 4; read off a plot.
Consider chain 2 D105P, for which the screen value was 58%.
